Source: patent publication US20100144029

Target: ClpP proteasome (UniProt P0A6G7)

## processed E. coli ClpX protein (after proteolytic removal of the T7B carboxyl-terminal extension)
  ATPase activity and ability to cooperate with the ClpP proteasome in degrading model protein substrates: full biological activity
